Laboratory results taken from patent US20060073149A1.
pKd: −log10 of the molar value.

Tests used:
Soluble Aβ 1-40 = Soluble Aβ 1-40 (UniProt P05067); experiment: SPR (BIAcore 2000), antibody captured on anti-Ig, soluble Aβ in flow
Soluble Aβ 1-42 = Soluble Aβ 1-42 (UniProt P05067); experiment: as above

pKd (Soluble Aβ 1-40)	pKd (Soluble Aβ 1-42)	Substance
7.64	7.62	anti-Aβ murine antibody 4G8
	8.36	anti-Aβ murine antibody 21F12
11.40	11.40	Murine anti-Aβ antibody 266
